The record followed here is US20150368340A1 (US Dept. of Health and Human Services, published 2015).

As a reminder, the Kd is a measure of binding affinity in units of concentration.

The target of assay [1] is cell surface-associated glypican-3 (GPC3) (human) (UniProt P51654). Description: co-IP of GPC3 and Wnt3a from HepG2 xenograft tumor tissue after three weeks of 20 mg/kg HS20 (mutated form); blocked partner Wnt3a (FIG. 17B).
For assay [2], the target named is T1, cell surface-associated glypican-3 (GPC3) (human, UniProt P51654 25-554, two heparan sulfate (HS) chains on the C-terminal portion; GPI anchor). Nature of the assay: cell-based or functional assay.
Assay [3] has as its target T1, cell surface-associated glypican-3 …. Description: cell-based or functional assay. This is another data set of the same source.
The next assay deals with T2, GPC3 C-terminal fragment (human, UniProt P51654 359-559, limits assumed).
T2 construct: domain: C-terminal fragment; also called C-terminus alone
T2 sequence (looked up): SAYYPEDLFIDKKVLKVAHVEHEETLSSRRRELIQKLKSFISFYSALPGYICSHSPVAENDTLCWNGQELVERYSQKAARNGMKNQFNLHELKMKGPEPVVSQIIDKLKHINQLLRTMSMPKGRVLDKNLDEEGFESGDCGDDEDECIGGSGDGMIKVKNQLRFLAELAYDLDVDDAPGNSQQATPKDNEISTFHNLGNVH
Description: phage ELISA on recombinant GPC3 fragments (FIG. 5B). In general terms: ELISA stands for enzyme-linked immunosorbent assay.

Another assay concerns the target T3, GPC3 N-terminal fragment (human, UniProt P51654 25-358).
T3 construct: domain: N-terminal fragment; also called N-terminus alone
Described as above.

Assay [4] addresses cell surface-associated glypican-3 (GPC3) (human) (UniProt P51654). Description: cell-based or functional assay.
In assay [5] the target is T4, recombinant human GPC3 with His tag (GPC3-his) (human, UniProt P51654 25-559, heparan sulfate chains).
T4 construct: range 25-559; also called GPC3 alone; purified GPC3; not shown: six-histidine tag
Nature of the assay: ELISA on recombinant GPC3 protein against HS molecules alone (FIG. 13B).

Assay [6] has as its target T4, recombinant human GPC3 with His tag …. Nature of the assay: ELISA on recombinant GPC3 protein (FIG. 13B).
Assay [7] addresses T1, cell surface-associated glypican-3 …. Nature of the assay: flow cytometry on G1 cells, HN3-hFc titrated, one-site binding fit (FIG. 4B). A general note: In flow cytometry, cells or beads pass a laser one at a time.
Assay [8] addresses T4, recombinant human GPC3 with His tag …. Description: ELISA, purified GPC3 coated at 1 µg/ml, HN3-hFc titrated, one-site binding fit (FIG. 4A).

Regarding “HS20 Mt (HS20 IgG with the N-glycosylation site of the VL removed) (antibody)”, in assay [1], the percent of the GPC3-Wnt3a interaction blocked was 70%.

B1: HN3(VH)-PE38 immunotoxin (other)
chain: QVQLVQSGGGLVQPGGSLRLSCAASYFDFDSYEMSWVRQAPGKGLEWIGSIYHSGSTYYNPSLKSRVTISRDNSKNTLYLQMNTLRAEDTATYYCARVNMDRFDYWGQGTLVTVSSSAAKASGGPEGGSLAALTAHQACHLPLETFTRHRQPRGWEQLEQCGYPVQRLVALYLAARLSWNQVDQVIRNALASPGSGGDLGEAIREQPEQARLALTLAAAESERFVRQGTGNDEAGAANGPADSGDALLERNYPTGAEFLGDGGDVSFSTRGTQNWTVERLLQAHRQLEERGYVFVGYHGTFLEAAQSIVFGGVRARSQDLDAIWRGFYIAGDPALAYGYAQDQEPDARGRIRNGALLRVYVPRSSLPGFYRTSLTLAAPEAAGEVERLIGHPLPLRLDAITGPEEEGGRLETILGWPLAERTVVIPSAIPTDPRNVGGDLDPSSIPDKEQAISALPDYASQPGKPPREDLK
Take B1: in assay [2], the “cytotoxicity IC50 (WST-8), G1 cells, molar” value worked out at 0.0002 nM; the “cytotoxicity IC50 (WST-8), Hep3B cells, molar” value amounted to 0.0004 nM; the “cytotoxicity IC50 (WST-8), HepG2 cells, molar” value was 10 nM; the “cytotoxicity IC50 (WST-8), Huh-1 cells, molar” value worked out at 0.0012 nM. Besides, in assay [2], the “cytotoxicity IC50 (WST-8), Huh-7 cells, molar” value worked out at 1.3 nM. In assay [3], the “cytotoxicity IC50 (WST-8), G1 cells” value was 0.01 ng/mL; the “cytotoxicity IC50 (WST-8), Hep3B cells” value amounted to 0.02 ng/mL; the “cytotoxicity IC50 (WST-8), HepG2 cells” value was 549 ng/mL; the “cytotoxicity IC50 (WST-8), Huh-1 cells” value is 0.06 ng/mL. Further, in assay [3], the “cytotoxicity IC50 (WST-8), Huh-4 cells” value is over 1000 ng/mL and the “cytotoxicity IC50 (WST-8), Huh-7 cells” value was 64 ng/mL.

B2: HN3 single-domain VH displayed on phage (clone HN3) (VHH)
VHH: QVQLVQSGGGLVQPGGSLRLSCAASYFDFDSYEMSWVRQAPGKGLEWIGSIYHSGSTYYNPSLKSRVTISRDNSKNTLYLQMNTLRAEDTATYYCARVNMDRFDYWGQGTLVTVSS
For B2, the binding result with GPC3 C-terminal fragment and with GPC3 N-terminal fragment was “no binding” throughout.

B3: HS20 human IgG (HS20 Wt mAb) (antibody, V domains shown)
VH: EVQLLESGGGLVQPGGSLRLSCAASGFTFSSYAMSWVRQAPGKGLEWVSTIQKQGLPTEYADSVKGRFTISRDNSKNTLYLQMNSLRAEDTAVYYCAKNRAKFDYWGQGTLVTVSS
VL: DIQMTQSPSSLSASVGDRVTITCRASQSISSYLNWYQQKPGKAPKLLIYNASMLQSGVPSRFSGSGSGTDFTLTISSLQPEDFATYYCQQNRGFPLTFGQGTKVEIK
modifications: N-glycosylation site at residue 50 of SEQ ID NO: 16 (CDR2)
notes: also called HS20 IgG; HS20 mAb
The molecule B3 returned a decrease in wound closure efficiency (wound healing assay, Hep3B cells, 50 µg/ml HS20) in assay [4] of over 30%. In addition, the “fold stronger binding than on HS alone” value in assay [5] was at least 1000 fold. For the same molecule, the Kd in assay [6] worked out at 0.75 nM.

B4: HN3-human Fc fusion protein (HN3-hFc) (Fc fusion, not shown: a dimerising Fc or GST)
chain: QVQLVQSGGGLVQPGGSLRLSCAASYFDFDSYEMSWVRQAPGKGLEWIGSIYHSGSTYYNPSLKSRVTISRDNSKNTLYLQMNTLRAEDTATYYCARVNMDRFDYWGQGTLVTVSSS
notes: also called HN3 human mAb
For B4, in [2], the “cell growth inhibition (WST-8), Hep3B cells, IC50” value was about 50000 ng/mL and the “cell growth inhibition (WST-8), Huh-7 cells, IC50” value was about 50000 ng/mL. The same molecule returned a Kd in assay [7] of 0.15 nM. The Kd in assay [8] worked out at 0.64 nM.
